Measured values taken from the DeepSol protein solubility set.

test: soluble on expression in E. coli; label from the status in PepcDB or PDB records

Row | Sequence | soluble on expression in E. coli
1 | MIIDDIINKIKSSNKIAISFHISPDGDSIGSSLGLLNGLRSIGKETYILSKEVVPESFEFLNFAREIDGNHFEVEDNTDLLITLDCGNIERLNFDTSDMISEDKKYTVINIDHHVTNDSFGDLNYINTKAASVGEIVYDLLSKMNISIDRTIAACLYTSILTDTGSFRFSNTTLNTHVVAGNLISTGLDFSEIHRKIFDNKKFEALKLQALVLNDMYLTFNNKLCVMKVTHDFIEKANAEDVDTGDLVSLGLKVNTAEVCMLLKEKDDCIKVSLRSKSYVDVRKIAEKFGGGGHIRAAGLSINSNILDAEKMILSEIQGELLEHHHHHH | not soluble
2 | MIILKLEDSWGFQISKIAQEMDSQFSKKLTKYDIGSREYGILLTIHQYALLTQLKIGELNKVDRTTIGQLVDLLERKDFVARQKNPKDRRQNLLVLTKTGRSLAEEMWQEMKEIEKDVLKHLSAKQKETLLTMVKAIRKGELN | not soluble
3 | MIILQGNKLERSFSGDVLFQNISLQVDERDRIALVGPNGAGKSTLLKLLVGEETPTSGEVNTKKDLTLSYLAQNSRFESDQTIYEEMLKVFEALRQDEKRLRQMEMDMATVSGQVLTRLMTDYDLLTEHFRQQGGFTYESDIKAILNGFKFDESMWQMTIAELSGGQNTRLALAKMLLEKPELLVLDEPTNHLDIETIAWLENYLANYQGALIIVSHDRYFLDKVATVTLDLTPNGLDRYSGNYSRFMALKAEKLVAEEKQFDKQQKEIAKLEDFVQKNIVRASTTKRAQARRKQLEKIERLDKPTGGRKSAHMTFHAEKPSGNVVLRVEEAAIGYGDQVLSEPINVDINKLDAIAVVGPNGIGKSTLIKSIIGQLPLLKGQLKYGANVETGYYDQTQSHLTSSNTVLEELWQDFSTTPEVDIRNRLGAFLFSGDDVKKSVAMLSGGEKARLLLAKLSMENNNFLVLDEPTNHLDIDSKEVLENALIDFDGTLLFVSHDRYFINRLATKVLEITENGSTLYLGDYDYYLEKKAELEELARLAAGETVEETKEASATDYQLQKANQKERRRLTRRYEEIEARLETIEERIGAIQEDMHASNDTAQLIAWQKEWDQLDQEQEALMEEWETIAEQIES | not soluble
4 | MIISEFDRNNPVLKDQLSDLLRLTWPEEYGDSSAEEVEEMMNPERIAVAAVDQDELVGFIGAIPQYGITGWELHPLVVESSRRKNQIGTRLVNYLEKEVASRGGITIYLGTDDLDHGTTLSQTDLYEHTFDKVASIQNLREHPYEFYEKLGYKIVGVLPNANGWDKPDIWMAKTIIPRPD | soluble
5 | MIKAIFTRQKNGQLSSVTLTGHAGSGKHGFDIVCASVSTLAINFVNSLEVLADCQALVDLNDVEGGYMAITIPPHDNKEEVQLLFESFLLGMTSLAKDSSKFVNTQVI | not soluble
6 | MIKGIGLDMIDLERVKQVVEKNPRFIERVLTEKEIKQFEKYEGNRKIEFLAGRFAAKEAYAKANGTGFGKHLSFTDVEILQVEDGRPHVTLPVKSGENVFVSITHTARSAAAQVIIEI | not soluble
7 | MIKGSCLCGDIRYTTEAAPQGASMCHCGQCRRQSGGVWSSAFVPEADLTITGPVSWFAASDTAKRGFCARCGSFLFWKANDEDTISFSLGSVDGPTGLRLTKHIFVAGKGDYYDIADDAPHKD | not soluble
8 | MIKILQTKSGVTKFQVLIEIAAHQPNVRQKEIAAKIGITPQAVSEYIKELVNDGLIVTEGRVRYRITKEGVEWVLENATEMKQYARFVMEDIISHVSTWTAITREEVKEGQQVYLKMDHGLLYVSSREVTGASGAIISDAAEGEDVGVTSLKGLIDLENATITICKVPRVERGGSRKVDLERLKMLADAKPYIAAIGVESLIALRKIGISPNVMFGTNESVIEAAYHGLSSLVVSVDEQVSALLNRLETENLEYELVDLTVE | not soluble
9 | MIKNLITQQEGKTLEFKRDLSSPKSLLKSIVAFANTAGGHLIIGVNDERQIIGVEHPLDEEERLCNLIADSISPRLIPSIELVTLNNKTLLVIEVFVSNTGPHWINSEGSTQGIYVRLGSTNRQADQELITELHRRSEGVNFDEMPMPQLSVDDVDITKAQELFSDIKSLNEKNLLTLKLITSHQGKLVPTKGAILLFGKERNTYFPDAWVQCGRFIGKDKSRIFDHVDIYDYLPDAVESIMMFLKKHALRGADFSAVQRKDIWSIPLVMLREAVINALVHTDYSQRGAPIRISFFDDRIEIENPGILLPGLTIEDMRQGISKIRNHVIARVFRELNLIEQWGSGVSRIYSEAIEQKLQEPEIIEIGMRIRFIIYLAQGIPIDSTFDKRDKQLESRLESRLESRLESKLAARVIQVLQNGEAGKIQIARSLGHQTVSGELHKQIKQLLKLEIIEMTIPDKPNSRLQKYRLTNKGIDLINIIQRELAAALEHHHHHH | not soluble
10 | MIKQDVICYEKEDVVKRNNINITGGGEKTVLLAHGFGCDQNMWRFMLPELEKQFTVIVFDYVGSGQSDLESFSTKRYSSLEGYAKDVEEILVALDLVNVSIIGHSVSSIIAGIASTHVGDRISDITMICPSPCFMNFPPDYVGGFERDDLEELINLMDKNYIGWANYLAPLVMGASHSSELIGELSGSFCTTDPIVAKTFAKATFFSDYRSLLEDISTPALIFQSAKDSLASPEVGQYMAENIPNSQLELIQAEGHCLHMTDAGLITPLLIHFIQNNQTRA | soluble
11 | MIKRKLQDLAVCCSYQVDFLHEKKHSVKEFKRKYEVLDEIGRGGFGIVYEATTRQDGQQPVAVKFVQHKHVRSWTMTCRQLIPSEVCHLETCEDIPGVIKILDWFANSKGFLIVMERPANCMDLFDMVSVHGPLNEDMGKFIFKQVITTVFNMYSKHGLLHRDIKDENLIVNMNTGEVKLVDFGATAYAEKATKKEFQGTRSYCPPEWFRDQLYLPLEATSWSLGVLLFILLTGKLPFRNEIQICLGNVKFPPDLSKEVCQLVKSCLTTSTSARASLAQIAAHPWMETDKPFFGGDLTFEEALMEIKNPPVVIEDKEAEEEDNDLNDVVILTRSRESRTDLDAESICTMVTAVEDRYEPSIAVKELEQEEIVETGETTNLMRSESRYDNISSSSFCDYVSLVSSSYDDQFTSTSDIYQSACEVFPHTGSSSSLSRSMGAVKSASAYNLVRMRKKSSIFKSFDTELDPVSENDHQPLIPETSSATCQSTYSNDEDVTISEKVVSPAQPLPPPLSPRKGSLQCFESVPRSRDSVIRMSRHRPLQFAIDSSSPPPALAIFQVSPTASVG | not soluble
12 | MIKRTLLLAMLPILAHAEELPAPVKAIEKQGITILKSFEAPGGMKGYLGKYQDMGVTIYLTPDGKHAISGYMYNEKGENLSNALIEKEIYAPAGREMWQKMEKASWILDGKKDAPVVLYVFADPFCPYCKQFWQQARPWVESGKVQLRTLLVGVIKPESPATAAAILAAKDPAKTWHDYEASAGKMKLEVPASIPPAQMKVINQNQQLMDDLGANATPAIYYMNKDKILQQVVGLPEKAQLDAMMGQP | not soluble
13 | MIKWPWKAQEITQNEDWPWDDALAIPLLVNLTAQEQARLIALAERFLQQKRLVALQGFELDSLKSARIALIFCLPILELGIEWLDGFHEVLIYPAPFVVDDEWEDDIGLVHSQRVVQSGQSWQQGPIILNWLDIQDSFDASGFNLIIHEVAHKLDMRNGDRASGIPFIPLRDVAGWEHDLHAAMNNIQDEIDLVGESAASIDAYAATDPAECFAVLSEYFFSAPELFAPRFPALWQRFCQFYRQDPSQRLRVSAAEGDYGEESEH | not soluble
14 | MILERVEIVGFRGINRLSLMLEQNNVLIGENAWGKSSLLDALTLLLSPESDLYHFERDDFWFPPGDINGREHHLHIILTFRESLPGRHRVRRYRPLEACWTPCTDGYHRIFYRLEGESAEDGSVMTLRSFLDKDGHPIDVEDINDQARHLVRLMPVLRLRDARFMRRIRNGTVPNVPNVEVTARQLDFLARELSSHPQNLSDGQIRQGLSAMVQLLEHYFSEQGAGQARYRLMRRRASNEQRSWRYLDIINRMIDRPGGRSYRVILLGLFATLLQAKGTLRLDKDARPLLLIEDPETRLHPIMLSVAWHLLNLLPLQRIATTNSGELLSLTPVEHVCRLVRESSRVAAWRLGPSGLSTEDSRRISFHIRFNRPSSLFARCWLLVEGETETWVINELARQCGHHFDAEGIKVIEFAQSGLKPLVKFARRMGIEWHVLVDGDEAGKKYAATVRSLLNNDREAEREHLTALPALDMEHFMYRQGFSDVFHRVAQIPENVPMNLRKIISKAIHRSSKPDLAIEVAMEAGRRGVDSVPTLLKKMFSRVLWLARGRAD | not soluble
15 | MILFDFKDLSAATSWYGVNDTVMGGLSRSKLTISPLGYGIFSGHVSLANGGGFASVRCEFEHVNVAEFTGIYLDLDSDRSKQYKVNLKDADTPQSTVYQAIMPAPTHQTFGLSGASAIHWQRIEIPFTNFHPQCRGKPIAGAAIDLRRLTSIGLVIGAQQSGDFALKIKSIGCYLEHHHHHH | soluble
16 | MILGPDGKPIKKPETSEIARVLHTFSAFMKSLPNPDIILKKTGKTAEIFEEMKTDAHVWAELTKRKSGVLSKDWDILPASNDRRDLEIAAFVKETFERLNFDQDMRTKTCGKCSMPCSRAGTCTN | not soluble
17 | MIMRWGEKRYHSLDYELKQMFKEKVYKIALNGGMTCPNRDGHVGTGGCIFCSSQGSGDFAGSARLSIAEQIRQGKADISSKRPVHSYIAYFQAFTNTYAPVETLRALYMEAIADPEVKILSIATRPDCLGADVLALLDEINQIKPVWVELGLQTIHPETSAYIRRGYELSVFEQAVKELRAIGITVIVHTILYLPGETKDDMLDTIHYLNHMDIQGIKLQLLHVLTHTDLAADYEKHPFYIPDMQDYIQFLGTCIAHLNPEIVIHRLTGDGPKDLLIAPLWTSNKRTVLNQLHSHLKEQDIWQGKEYYV | not soluble
18 | MIMTNINTACVKNNASYQLNNALPNKETISSNFCERLEQWGNKSVNNGEERAIAVERIKEAYNSNMASLDLSYLDLSELPPIPSTVNTLNLENNCLTCLDLADNASLVNINLSVNKINTITFPKEPKLENIYINHNNLESLDLKNQHSLVNLEAQNNSLKKLEHHHHHH | not soluble
19 | MIMVNNDAVVRNVYHKYFHPKEALVSSGVLNREISRAAGKAVPGIIDEESSGNNAQ | soluble
20 | MIMVSGCQQQKEETPFYYGTWDEGRAPGPTDGVKSATVTFTEDEVVETEVMEGRGEVQLPFMAYKVISQSTDGSIEIQYLGPYYPLKSTLKRGENGTLIWEQNGQRKTMTRIESKTGREEKDEKSKSLEHHHHHH | soluble
21 | MINNDLLRRISNIFDLTDETILTTFALSQCEISAEQLTNFFKEKDDTAYQPLEDVQFASFLNGLIIAKRGPSDGPERPVEEELTNNMIFNKVKIALSLKAEEVIATLELADLSLGKYELSAFFRNVNNKHYKDCSDEVLSAFLKGLKIKSK | not soluble
22 | MINQNATYMEESAQSAVDNFGLGFNLGNTLDANGCGTGKPVATYETFWGQPETTQDMMTFLMQNGFNAVRIPVTWYEHMDAEGNVDEAWMMRVKAIVEYAMNAGLYAIVNVHHDTAAGSGAWIKADTDVYAATKEKFKKLWTQIANALADYDQHLLFEGYNEMLDGNNSWDEPQKASGYEALNNYAQDFVDAVRATGGNNATRNLIVNTYAAAKGENVLNNFMLPTDAVNNHLIVQVHSYDPWNFFNTKTTWDSECHNTLTEIFSALSKKFTTIPYIIGEYGTHGESDISVSKSSPAEKIKLAADQAADMVKLAKDHHSATFYWMSIFDGSDRIQPQWSLPTVVEAMQEAYNN | soluble
23 | MINRNEEQNFNKLSEVINEYNKLQISQQIDYDKFYLYSIITHSTAIEGSTITEIENQLLFDEGISANKPIHEQLMNLDLKAAYEKSFELAKQHTQITPEILCELSVLVMKNTGTVYNTIGGTFSSAKGELRLVNVSAGRGGKSYMAWQKLPQKLEEFCSWLNSERKSIAEKDIEAQYAFSFLAHYKLVHIHPWADGNGRMSRLLMNVIQYEAGLVPAIIKKENRAEYIQSLASSQDKDDPAEFLHFMFSHHIRNLSEQIEEYKNSLEMSGS | not soluble
